Laboratory results as given in article PMC8575881, “Structure and activation mechanism of the hexameric plasma membrane H^+-ATPase” (Nature Communications, 2021).

Key:
[1] = target: the molecule itself; assay: SEC + native gel or EMSA; Superose 6 10/300 Increase in 20 mM HEPES pH 7.4, 150 mM NaCl, 0.003% LMNG, 0.0003% CHS, 1 mM MgCl2; native PAGE 4-20%, Tris-glycine pH 8.8
[2] = target: the molecule itself; assay: SEC + native gel or EMSA; Superdex 200 10/300 in 20 mM HEPES pH 7.4, 150 mM NaCl; native gel electrophoresis
[3] = target: the molecule itself; assay: SEC + native gel or EMSA; gel filtration of Pma1-ΔC22 by the protocol of wild-type Pma1; fractions 10-16 ml on native PAGE

B1: S. cerevisiae plasma membrane H+-ATPase Pma1, full length, with a C-terminal triple FLAG epitope (enzyme, UniProt P05030 1-918, looked up)
chain: MTDTSSSSSSSSASSVSAHQPTQEKPAKTYDDAASESSDDDDIDALIEELQSNHGVDDEDSDNDGPVAAGEARPVPEEYLQTDPSYGLTSDEVLKRRKKYGLNQMADEKESLVVKFVMFFVGPIQFVMEAAAILAAGLSDWVDFGVICGLLMLNAGVGFVQEFQAGSIVDELKKTLANTAVVIRDGQLVEIPANEVVPGDILQLEDGTVIPTDGRIVTEDCFLQIDQSAITGESLAVDKHYGDQTFSSSTVKRGEGFMVVTATGDNTFVGRAAALVNKAAGGQGHFTEVLNGIGIILLVLVIATLLLVWTACFYRTNGIVRILRYTLGITIIGVPVGLPAVVTTTMAVGAAYLAKKQAIVQKLSAIESLAGVEILCSDKTGTLTKNKLSLHEPYTVEGVSPDDLMLTACLAASRKKKGLDAIDKAFLKSLKQYPKAKDALTKYKVLEFHPFDPVSKKVTAVVESPEGERIVCVKGAPLFVLKTVEEDHPIPEDVHENYENKVAELASRGFRALGVARKRGEGHWEILGVMPCMDPPRDDTAQTVSEARHLGLRVKMLTGDAVGIAKETCRQLGLGTNIYNAERLGLGGGGDMPGSELADFVENADGFAEVFPQHKYRVVEILQNRGYLVAMTGDGVNDAPSLKKADTGIAVEGATDAARSAADIVFLAPGLSAIIDALKTSRQIFHRMYSYVVYRIALSLHLEIFLGLWIAILDNSLDIDLIVFIAIFADVATLAIAYDNAPYSPKPVKWNLPRLWGMSIILGIVLAIGSWITLTTMFLPKGGIIQNFGAMNGIMFLQISLTENWLIFITRAAGPFWSSIPSWQLAGAVFAVDIIATMFTLFGWWSENWTDIVTVVRVWIWSIGIFCVLGGFYYEMSTSEAFDRLMNGKPMKEKKSTRSVEDFMAAMQRVSTQHEKET
notes: Plasma membrane H+-ATPase Pma1, S. cerevisiae, 918-residue protein, full length; Co-purified with endogenous lipids; residues 1-110 are disordered in the structures; The FLAG tag is not reported to be removed; also called Pma1-FL; wild-type Pma1; source: endogenous, tagged in the genome of yeast strain BY4742
For B1, the “stoichiometry N” value [1] was 6.

B2: SUMO-tagged helix-i (C-terminal 22 residues of Pma1) with an N-terminal 6xHis-SUMO tag and TEV site (domain or fragment, S. cerevisiae, UniProt P05030 897-918, looked up)
chain: TRSVEDFMAAMQRVSTQHEKET
notes: Pma1, S. cerevisiae, helix-i, the C-terminal 22 amino acids (T897-T918); A TEV protease cleavage site lies between the 6xHis-SUMO tag and the peptide; also called C-terminal helix-I peptide; C-tail helix-i; source: E. coli Rosetta (DE3), pET28a, purified (Ni-beads, Superdex 200 gel filtration); not shown: His6, N-terminal, kept; SUMO, N-terminal, kept
B2: binds [2].

B3: Pma1-ΔC22, helix-i truncated Pma1 with a C-terminal FLAG tag (domain or fragment, S. cerevisiae, UniProt P05030 1-896, looked up)
chain: MTDTSSSSSSSSASSVSAHQPTQEKPAKTYDDAASESSDDDDIDALIEELQSNHGVDDEDSDNDGPVAAGEARPVPEEYLQTDPSYGLTSDEVLKRRKKYGLNQMADEKESLVVKFVMFFVGPIQFVMEAAAILAAGLSDWVDFGVICGLLMLNAGVGFVQEFQAGSIVDELKKTLANTAVVIRDGQLVEIPANEVVPGDILQLEDGTVIPTDGRIVTEDCFLQIDQSAITGESLAVDKHYGDQTFSSSTVKRGEGFMVVTATGDNTFVGRAAALVNKAAGGQGHFTEVLNGIGIILLVLVIATLLLVWTACFYRTNGIVRILRYTLGITIIGVPVGLPAVVTTTMAVGAAYLAKKQAIVQKLSAIESLAGVEILCSDKTGTLTKNKLSLHEPYTVEGVSPDDLMLTACLAASRKKKGLDAIDKAFLKSLKQYPKAKDALTKYKVLEFHPFDPVSKKVTAVVESPEGERIVCVKGAPLFVLKTVEEDHPIPEDVHENYENKVAELASRGFRALGVARKRGEGHWEILGVMPCMDPPRDDTAQTVSEARHLGLRVKMLTGDAVGIAKETCRQLGLGTNIYNAERLGLGGGGDMPGSELADFVENADGFAEVFPQHKYRVVEILQNRGYLVAMTGDGVNDAPSLKKADTGIAVEGATDAARSAADIVFLAPGLSAIIDALKTSRQIFHRMYSYVVYRIALSLHLEIFLGLWIAILDNSLDIDLIVFIAIFADVATLAIAYDNAPYSPKPVKWNLPRLWGMSIILGIVLAIGSWITLTTMFLPKGGIIQNFGAMNGIMFLQISLTENWLIFITRAAGPFWSSIPSWQLAGAVFAVDIIATMFTLFGWWSENWTDIVTVVRVWIWSIGIFCVLGGFYYEMSTSEAFDRLMNGKPMKEKKS
notes: Plasma membrane H+-ATPase Pma1, S. cerevisiae, lacking helix-i, the last 22 residues (T897-T918) of the 918-residue protein; also called Pma1-△C22; source: S. cerevisiae BY4742 transformed with the PRS423 vector; purified as wild-type Pma1 (anti-FLAG M2, gel filtration)
B3: binds [3].
